Assay [1] concerns the target glycosylated FG domain of Nup98 from Xenopus tropicalis (Nup98-glyco), amino acids 1 to 485, with an N-terminal His14-TEV tag (X. tropicalis). The assay can be described thus: spectroscopic ellipsometry; NTF2 and NTF2 W7A mutant sequentially exposed to FG domain films (5-13 pmol/cm^2), equilibrium bound amounts by SE, two to four measurements per FG domain type; native NTF2 on a reg-SSSG film (8.3 pmol/cm^2) as control.

For assay [2], the target named is reg-FSFG, an artificially designed regular FSFG domain with 16 repetitions of the sequence … and an N-terminal His14-TEV tag. The assay is described as above.
Assay [3] addresses glycosylated FG domain of Nup98 from Xenopus tropicalis (Nup98-glyco), amino acids 1 to 485, with an N-terminal His14-TEV tag (X. tropicalis). Nature of the assay: spectroscopic ellipsometry + QCM-D; FG domain end-grafted through its His tag (4-11 pmol/cm^2) on His tag capturing QCM-D sensors (NTF2 with Nsp1) or on Ni2+-NTA supported lipid bilayers (Nup98-glyco, reg-FSFG, Impβ with Nsp1); NTR titrated in solution from 0.0025 to 10 uM, equilibrium bound amounts by SE; 10 mM Hepes pH 7.4, 150 mM NaCl, 23 °C; linear fit at cNTR <= 0.05 uM, Hill equation at 0.05-10 uM.

The target of assay [4] is reg-FSFG, an artificially designed regular FSFG domain with 16 repetitions of the sequence … and an N-terminal His14-TEV tag. The description is as above.

These results are taken from article PMC4874776.

For the substance “W7A mutant of NTF2 (from UniProt P61970 1-127) (receptor)”, the reduction of the equilibrium bound amount against native NTF2 in assay [1] and in assay [2] was more than 80% throughout.

Take “nuclear transport factor 2 from Homo sapiens (NTF2) (from UniProt P61970 1-127) (receptor)”: the FG motifs in the film per bound NTR at cNTR = 10 uM (FG motifs per bound NTF2 dimer) in assay [3] and in assay [4] was more than 10 each time.
